One molecule from paper PMC7470959, “Structures of mammalian GLD-2 proteins reveal molecular basis of their functional diversity in mRNA and microRNA processing” can be followed below.

Holding throughout (conditions): protein: recombinant; tags: N-terminal His6 removed by PreScission protease; label: 5' biotin; single strand
One data set has as its target T1, rnGLD-2 R325A (Rattus norvegicus, UniProt Q5U315 131-484, R325A).
T1 sequence: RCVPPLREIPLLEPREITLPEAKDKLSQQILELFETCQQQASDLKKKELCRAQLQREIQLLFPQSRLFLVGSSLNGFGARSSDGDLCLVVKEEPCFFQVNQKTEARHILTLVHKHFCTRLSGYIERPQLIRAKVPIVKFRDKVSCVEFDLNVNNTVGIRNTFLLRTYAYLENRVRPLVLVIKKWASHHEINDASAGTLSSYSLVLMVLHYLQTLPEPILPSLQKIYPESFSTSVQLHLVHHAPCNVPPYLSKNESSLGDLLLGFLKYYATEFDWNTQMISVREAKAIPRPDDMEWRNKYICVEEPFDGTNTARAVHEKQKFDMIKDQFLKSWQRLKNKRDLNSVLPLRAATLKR
Description: EMSA; 4 uM protein, 50 nM RNA; EMSA: 20 mM Tris-HCl pH 8.0, 100 mM NaCl, 37 C 20 min; 4 uM protein, 50 nM 5' biotinylated RNA; 6% native gel, TAE pH 7.2, 4 C.

The next data set deals with T2, rnGLD-2 R443A (Rattus norvegicus, UniProt Q5U315 131-484, R443A).
T2 sequence: T1 sequence with A195R, R313A
Described as above.

In another data set the target is T3, rnGLD-2 NTase region WT (Rattus norvegicus, UniProt Q5U315 131-484).
T3 sequence: T1 sequence with A195R
The data set is described as follows: EMSA; 4 uM protein, 50 nM RNA; described as weak interaction; no Mg2+ listed in binding buffer; EMSA: 20 mM Tris-HCl pH 8.0, 100 mM NaCl, 37 C 20 min; 4 uM protein, 50 nM 5' biotinylated RNA; 6% native gel, TAE pH 7.2, 4 C.

Another data set deals with T4, rnGLD-2 R236A (Rattus norvegicus, UniProt Q5U315 131-484, R236A).
T4 sequence: T1 sequence with R106A, A195R
Description: EMSA; 4 uM protein, 50 nM RNA; efficient/tight binding stated; EMSA: 20 mM Tris-HCl pH 8.0, 100 mM NaCl, 37 C 20 min; 4 uM protein, 50 nM 5' biotinylated RNA; 6% native gel, TAE pH 7.2, 4 C. On the technique in general: In EMSA bound probe runs differently from free probe, usually more slowly.

Positions count from the first letter of the chain named.

Take AAAAAAAAAAAAAAA (ssRNA) [A15]: the binding result in the data set with rnGLD-2 R325A was “no binding”; with rnGLD-2 R443A, “no binding”; with rnGLD-2 NTase region WT it was “binds”; with rnGLD-2 R236A it was “binds”.
